Experimental data from patent US7211424B1, “Mammalian Subtilisin/kexin isozyme SKI-1: a proprotein convertase with a unique cleavage specificity” (Institut de Recherches Cliniques de Montreal, priority 1999, dated 2007).
Where two headings read alike, the source gives them in different places. Where no end group is shown, it is not given here. [ ]: non-standard residue; d: D form. Tyr(3-NO2) = N[C@@H](Cc1ccc(O)c([N+](=O)[O-])c1)C(=O)O; 2Abz = Nc1ccccc1C(=O)O

Columns and labels:
[1] = target: T1, BTMD-SKI-1 (Homo sapiens, UniProt Q14703); experiment: pH optimum and calcium dependence of peptide cleavage by BTMD-SKI-1; assay type: biochemical
T1 sequence (Q14703 187-997 limits assumed): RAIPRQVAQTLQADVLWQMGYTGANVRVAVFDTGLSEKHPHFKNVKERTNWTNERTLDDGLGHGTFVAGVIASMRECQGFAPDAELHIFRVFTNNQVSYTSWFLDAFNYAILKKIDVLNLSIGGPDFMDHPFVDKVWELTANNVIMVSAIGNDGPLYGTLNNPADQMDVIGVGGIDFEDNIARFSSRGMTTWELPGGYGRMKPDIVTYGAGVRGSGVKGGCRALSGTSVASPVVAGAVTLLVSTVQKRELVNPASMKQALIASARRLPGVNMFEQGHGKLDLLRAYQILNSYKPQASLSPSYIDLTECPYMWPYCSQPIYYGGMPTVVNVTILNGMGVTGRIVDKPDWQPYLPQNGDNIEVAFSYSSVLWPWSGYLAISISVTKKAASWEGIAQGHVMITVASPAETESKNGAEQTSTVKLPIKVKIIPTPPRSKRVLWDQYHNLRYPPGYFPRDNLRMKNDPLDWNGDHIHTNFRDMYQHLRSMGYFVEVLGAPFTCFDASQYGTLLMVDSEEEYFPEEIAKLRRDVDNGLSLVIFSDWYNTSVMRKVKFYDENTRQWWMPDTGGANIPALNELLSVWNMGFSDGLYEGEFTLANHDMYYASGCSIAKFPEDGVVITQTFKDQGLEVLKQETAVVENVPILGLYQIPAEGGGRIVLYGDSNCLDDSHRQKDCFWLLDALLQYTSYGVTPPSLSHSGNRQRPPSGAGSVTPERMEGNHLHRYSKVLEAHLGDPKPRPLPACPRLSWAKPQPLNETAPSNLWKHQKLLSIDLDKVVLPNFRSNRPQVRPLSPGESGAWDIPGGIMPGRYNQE
T1 sequence (Q14703 17-137 partner limits assumed): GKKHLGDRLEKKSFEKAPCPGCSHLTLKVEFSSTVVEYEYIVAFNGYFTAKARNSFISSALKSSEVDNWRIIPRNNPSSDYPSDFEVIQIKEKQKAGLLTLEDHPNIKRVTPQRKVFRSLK
Protocol: pH Optimum, Calcium-Dependence and Inhibitor Profile—The protocols used were essentially the same as reported previously (13). Stocks of the buffer described above were adjusted to pH 5.0–8.5 at 0.5 unit increments by addition of either acetic acid or sodium hydroxide. In order to investigate the calcium requirement of SKI-1, increasing concentrations of Ca^2+-acetate were used ranging from 0 to 10 mM.

[2] = test system: endogenous furin-like enzyme(s); experiment: Ex vivo proBDNF processing in COS-7 cells: 14 kDa BDNF; assay type: cell-based
[3] = target: T2, SKI-1 (Homo sapiens, UniProt Q14703); assay type: cell-based; parameters: The VV recombinant of full-length hSKI-1 has been described (10); expressed in transfected cells; host or cells: COS-7 cells co-infected with vv:BDNF and vv:SKI-1 (with vv:WT, vv:PIT or vv:PDX)
T2 sequence (Q14703 187-1052): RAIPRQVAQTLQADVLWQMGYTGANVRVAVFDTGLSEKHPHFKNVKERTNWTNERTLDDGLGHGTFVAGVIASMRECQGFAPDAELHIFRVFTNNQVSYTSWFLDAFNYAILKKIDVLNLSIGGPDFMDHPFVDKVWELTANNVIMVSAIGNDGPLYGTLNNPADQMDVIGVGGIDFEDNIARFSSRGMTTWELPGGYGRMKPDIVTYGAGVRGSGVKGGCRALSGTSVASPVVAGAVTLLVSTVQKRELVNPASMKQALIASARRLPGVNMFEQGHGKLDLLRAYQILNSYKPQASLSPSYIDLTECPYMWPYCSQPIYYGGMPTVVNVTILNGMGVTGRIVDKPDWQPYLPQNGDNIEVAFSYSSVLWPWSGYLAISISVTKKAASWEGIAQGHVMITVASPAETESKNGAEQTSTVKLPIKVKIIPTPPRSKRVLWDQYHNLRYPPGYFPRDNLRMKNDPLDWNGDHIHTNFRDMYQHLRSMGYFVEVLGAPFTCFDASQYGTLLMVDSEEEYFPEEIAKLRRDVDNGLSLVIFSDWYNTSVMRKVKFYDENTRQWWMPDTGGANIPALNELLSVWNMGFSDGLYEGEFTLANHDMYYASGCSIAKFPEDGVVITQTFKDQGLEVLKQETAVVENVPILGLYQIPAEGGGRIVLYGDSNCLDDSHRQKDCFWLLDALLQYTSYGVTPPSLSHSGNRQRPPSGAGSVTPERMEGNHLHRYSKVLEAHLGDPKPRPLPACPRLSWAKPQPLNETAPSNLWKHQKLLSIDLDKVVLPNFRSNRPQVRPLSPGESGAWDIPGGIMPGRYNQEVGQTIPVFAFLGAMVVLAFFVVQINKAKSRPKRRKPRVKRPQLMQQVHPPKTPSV

[4] = target: T3, BTMD-SKI-1 (human, UniProt Q14703 187-997); experiment: Ki(app) from Dixon plots; inhibition of peptide IV hydrolysis by BTMD-SKI-1 medium (RP-HPLC), prosegment preincubated with the enzyme for 30 min
T3 construct: The construct encodes aa 1-997 plus hexa-His; It was secreted from VV-infected BSC40 or LoVo cells and used as concentrated medium or after metal chelation purification; The secreted enzyme stays associated with the ~14 kDa prosegment fragment; also called bSKI-1; BTMD-hSKI-1
T3 sequence: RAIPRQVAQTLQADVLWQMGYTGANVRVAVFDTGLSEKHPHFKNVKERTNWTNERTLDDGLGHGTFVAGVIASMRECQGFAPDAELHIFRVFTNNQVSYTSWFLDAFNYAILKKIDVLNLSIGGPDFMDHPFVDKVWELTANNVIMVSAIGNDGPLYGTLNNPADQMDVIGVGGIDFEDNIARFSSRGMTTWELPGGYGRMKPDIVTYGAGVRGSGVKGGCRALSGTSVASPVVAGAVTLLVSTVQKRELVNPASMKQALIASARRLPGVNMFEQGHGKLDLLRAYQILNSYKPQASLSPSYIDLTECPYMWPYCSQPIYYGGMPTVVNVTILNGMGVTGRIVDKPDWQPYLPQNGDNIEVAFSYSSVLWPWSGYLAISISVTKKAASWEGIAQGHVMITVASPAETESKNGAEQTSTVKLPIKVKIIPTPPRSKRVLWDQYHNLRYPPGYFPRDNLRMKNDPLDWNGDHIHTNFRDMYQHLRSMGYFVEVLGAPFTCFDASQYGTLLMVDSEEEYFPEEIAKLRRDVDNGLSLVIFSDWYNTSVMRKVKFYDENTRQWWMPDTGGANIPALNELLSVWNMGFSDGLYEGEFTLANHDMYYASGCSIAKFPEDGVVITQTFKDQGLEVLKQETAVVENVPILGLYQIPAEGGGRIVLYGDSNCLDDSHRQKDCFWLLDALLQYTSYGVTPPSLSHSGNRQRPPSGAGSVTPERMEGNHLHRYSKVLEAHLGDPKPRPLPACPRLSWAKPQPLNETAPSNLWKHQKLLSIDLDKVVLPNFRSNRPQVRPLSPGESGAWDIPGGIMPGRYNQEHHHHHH

[5] = target: T4, BTMD-hSKI-1 (Homo sapiens, UniProt Q14703); assay type: biochemical
T4 sequence (Q14703 187-997 limits assumed): T1 sequence (Q14703 187-997 limits assumed)

[6] = target: T5, 98 kDa shed form of SKI-1 (sSKI-1) (human, UniProt Q14703 187-996); experiment: cell-based or functional assay
T5 sequence: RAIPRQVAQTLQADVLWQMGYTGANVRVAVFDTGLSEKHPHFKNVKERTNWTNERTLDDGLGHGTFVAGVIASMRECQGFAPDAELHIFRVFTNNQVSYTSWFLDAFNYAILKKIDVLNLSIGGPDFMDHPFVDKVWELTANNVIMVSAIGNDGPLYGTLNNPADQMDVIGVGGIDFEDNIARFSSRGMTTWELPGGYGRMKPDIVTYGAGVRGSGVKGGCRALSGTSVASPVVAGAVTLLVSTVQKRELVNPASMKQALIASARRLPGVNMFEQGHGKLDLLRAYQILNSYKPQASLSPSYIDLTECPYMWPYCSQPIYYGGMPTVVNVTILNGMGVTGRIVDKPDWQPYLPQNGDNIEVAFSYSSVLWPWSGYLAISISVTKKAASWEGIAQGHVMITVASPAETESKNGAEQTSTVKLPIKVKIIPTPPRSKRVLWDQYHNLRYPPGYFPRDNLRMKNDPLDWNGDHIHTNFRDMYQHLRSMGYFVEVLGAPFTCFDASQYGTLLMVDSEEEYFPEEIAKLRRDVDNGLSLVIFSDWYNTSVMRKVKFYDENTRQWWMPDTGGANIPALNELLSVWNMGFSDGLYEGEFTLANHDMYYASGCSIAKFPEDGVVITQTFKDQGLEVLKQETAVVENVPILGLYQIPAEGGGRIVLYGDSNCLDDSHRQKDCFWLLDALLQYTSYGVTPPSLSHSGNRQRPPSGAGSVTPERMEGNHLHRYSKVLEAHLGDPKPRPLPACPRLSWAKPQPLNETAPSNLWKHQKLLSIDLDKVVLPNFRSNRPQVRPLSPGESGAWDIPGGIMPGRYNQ

[7] = COS-7 cells co-expressing proBDNF and SKI-1

Which activity retained ([1]; at pH 5.0) does the source give for KAGSRGLTSLADTF [I] here?
Its activity retained is “about 30%”.

And the activity retained ([1]; at pH 8.5)?
Its activity retained is roughly 55%.

How did the “production of the 14 kDa BDNF” value [2, 7] turn out when `CNc1ccc2oc(C[C@H]3O[C@@]4(CC[C@H]3C)O[C@H]([C@H](C)C(=O)c3ccc[nH]3)[C@H](C)C[C@H]4C)nc2c1C(=O)O` [Peptide A23187] was run?
Its value is “abolished”.

And the “level of the 28 kDa BDNF product” value [3, 7]?
Its value is “abolished”.

α1-antitrypsin Portland [α1-PDX] was tested. Which “production of the 14 kDa BDNF” value [2] did it give?
The value was “selectively blocks the production of the 14 kDa BDNF”.

What about the “level of the 28 kDa BDNF product” value [3] of the same molecule?
The value was “neither α1-PIT nor α1-PDX affect the level of the 28 kDa product”.

B1: PS3 (SKI-1 prosegment construct extending to Leu197, hexa-His tag) (other)
chain: KKHLGDRLEKKSFEKAPCPGCSHLTLKVEFSSTVVEYEYIVAFNGYFTAKARNSFISSALKSSEVDNWRIIPRNNPSSDYPSDFEVIQIKEKQKAGLLTLEDHPNIKRVTPQRKVFRSLKYAESDPTVPCNETRWSQKWQSSRPLRRASLSLGSGFWHATGRHSSRRLLRAIPRQVAQTLHHHHHH
notes: Bacterial recombinant (pET24b, E. coli BL21); Any vector-derived residues are not described
B1 was tested. Which Ki [4] did it give?
Its Ki is 127 nM.

B2: PS2 (SKI-1 prosegment construct extending to Ala188, hexa-His tag) (other)
chain: KKHLGDRLEKKSFEKAPCPGCSHLTLKVEFSSTVVEYEYIVAFNGYFTAKARNSFISSALKSSEVDNWRIIPRNNPSSDYPSDFEVIQIKEKQKAGLLTLEDHPNIKRVTPQRKVFRSLKYAESDPTVPCNETRWSQKWQSSRPLRRASLSLGSGFWHATGRHSSRRLLRAHHHHHH
notes: Bacterial recombinant (pET24b, E. coli BL21); The start at aa 18 follows the sense primer and claim 3; Any vector-derived residues are not described
With B2 as the molecule, how does the “inhibitory potency after digestion with carboxypeptidase B to eliminate the His-tag” value [5] read?
Its value is “not affected”.

And the Ki ([5]; read-out: Ki(app))?
The Ki was 97 nM.

And the Ki [4]?
The Ki was 97.5 nM.

B3: peptide XI, Q-hSKI-1 (134-142): Abz-RSLKYAESD-Y(NO2)-A (peptide)
peptide: [2Abz]RSLKYAESD[Tyr(3-NO2)]A-NH2
modifications: N-terminus assumed
SMILES: CC(C)C[C@H](NC(=O)[C@H](CO)NC(=O)[C@H](CCCNC(=N)N)NC(=O)c1ccccc1N)C(=O)N[C@@H](CCCCN)C(=O)N[C@@H](Cc1ccc(O)cc1)C(=O)N[C@@H](C)C(=O)N[C@@H](CCC(=O)O)C(=O)N[C@@H](CO)C(=O)N[C@@H](CC(=O)O)C(=O)N[C@@H](Cc1ccc(O)c([N+](=O)[O-])c1)C(=O)N[C@@H](C)C(N)=O
Which “kinetic parameters relative to peptide IV” value [6] does the source give for B3 here?
Its value is roughly 16 fold.

B4: peptide X, Q-hSKI-1 (132-142): Abz-VFRSLKYAESD-Y(NO2)-A (peptide)
peptide: [2Abz]VFRSLKYAESD[Tyr(3-NO2)]A-NH2
modifications: N-terminus assumed
SMILES: CC(C)C[C@H](NC(=O)[C@H](CO)NC(=O)[C@H](CCCNC(=N)N)NC(=O)[C@H](Cc1ccccc1)NC(=O)[C@@H](NC(=O)c1ccccc1N)C(C)C)C(=O)N[C@@H](CCCCN)C(=O)N[C@@H](Cc1ccc(O)cc1)C(=O)N[C@@H](C)C(=O)N[C@@H](CCC(=O)O)C(=O)N[C@@H](CO)C(=O)N[C@@H](CC(=O)O)C(=O)N[C@@H](Cc1ccc(O)c([N+](=O)[O-])c1)C(=O)N[C@@H](C)C(N)=O
Which “kinetic parameters relative to peptide IV” value [6] does the source give for B4 here?
Its value is roughly 3 fold.
